Data taken from article PMC9588639 (Journal of thrombosis and haemostasis : JTH, 2022).

Columns and labels:
Test in all cases: BLI
[1] = biological target: mouse GPIbα LBD (mLBD, residues 1-290) (mouse)
[2] = biological target: human GPIbα LBD (mature protein residues 1-290) W230L (human, UniProt P07359 17-306, W230L)
[3] = biological target: human GPIbα LBD (mature protein residues 1-290) (human)

Sequence of mouse GPIbα LBD (mLBD, residues 1-290) (mouse) (O35930 whole entry, the tested form may be a part): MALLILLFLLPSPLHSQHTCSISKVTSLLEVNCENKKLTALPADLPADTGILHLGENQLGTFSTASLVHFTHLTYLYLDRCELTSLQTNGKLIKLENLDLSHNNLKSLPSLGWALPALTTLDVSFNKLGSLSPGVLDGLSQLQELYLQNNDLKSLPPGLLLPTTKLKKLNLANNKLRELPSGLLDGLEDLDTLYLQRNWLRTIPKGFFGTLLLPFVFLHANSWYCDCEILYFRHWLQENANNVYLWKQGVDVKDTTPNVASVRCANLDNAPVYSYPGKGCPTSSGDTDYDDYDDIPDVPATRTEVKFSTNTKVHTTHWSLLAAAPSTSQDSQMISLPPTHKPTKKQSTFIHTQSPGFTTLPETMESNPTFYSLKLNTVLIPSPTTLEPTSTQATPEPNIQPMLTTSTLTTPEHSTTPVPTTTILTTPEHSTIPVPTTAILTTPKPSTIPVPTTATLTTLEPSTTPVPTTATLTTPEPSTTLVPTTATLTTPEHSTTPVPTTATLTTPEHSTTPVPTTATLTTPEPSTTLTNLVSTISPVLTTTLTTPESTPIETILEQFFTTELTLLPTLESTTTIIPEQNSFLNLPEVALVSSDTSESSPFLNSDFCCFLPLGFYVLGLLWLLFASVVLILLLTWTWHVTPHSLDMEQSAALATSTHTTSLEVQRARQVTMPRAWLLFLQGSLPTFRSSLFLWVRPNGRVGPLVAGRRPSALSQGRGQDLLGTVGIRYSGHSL
Sequence of human GPIbα LBD (mature protein residues 1-290) W230L (P07359 17-306 W246L): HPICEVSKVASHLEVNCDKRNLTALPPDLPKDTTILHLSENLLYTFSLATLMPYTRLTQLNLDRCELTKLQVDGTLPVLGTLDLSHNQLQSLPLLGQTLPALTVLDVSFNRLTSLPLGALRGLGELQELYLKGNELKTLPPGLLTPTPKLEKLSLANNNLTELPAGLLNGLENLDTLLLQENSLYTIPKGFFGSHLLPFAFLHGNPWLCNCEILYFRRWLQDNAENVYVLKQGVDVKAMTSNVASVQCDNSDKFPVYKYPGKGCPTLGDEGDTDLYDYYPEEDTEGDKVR

Kd [1] [nM]	binding result [2]	Kd [3] [nM]	Molecule
386	–	–	mouse tAIM-A1 (containing VWF residues 1261-1472) (from UniProt Q8CIZ8 1261-1472) (domain or fragment)
1000	binds	515	recombinant mouse AIM-A1 protein (mouse VWF residues 1238-1493) (domain or fragment, UniProt Q8CIZ8 1238-1493, looked up) QEPGGLVAPPTDAPVSSTTPYVEDTPEPPLHNFYCSKLLDLVFLLDGSSMLSEAEFEVLKAFVVGMMERLHISQKRIRVAVVEYHDGSRAYLELKARKRPSELRRITSQIKYTGSQVASTSEVLKYTLFQIFGKIDRPEASHITLLLTASQEPPRMARNLVRYVQGLKKKKVIVIPVGIGPHASLKQIRLIEKQAPENKAFLLSGVDELEQRRDEIVSYLCDLAPEAPAPTQPPQVAHVTVSPGIAGISSPGPKRK
